Results as given in paper PMC6720452, “Structural Basis for Recruitment of DAPK1 to the KLHL20 E3 Ligase” (Structure(London, England:1993), 2019).

How the values were obtained:
full-length KLHL20 = experiment: Cycloheximide chase assay in HEK293T cells; format: cell-based, human; details: 100 μg/mL cycloheximide, 0-6h; for Half-life / degradation of DAPK1 on KLHL20 co-expression: with vs without full-length KLHL20, Western blot normalized to GAPDH
Excerpt: (§1) To confirm the identified “LPDLV” motif as a regulatory site for DAPK1 interaction and degradation, we performed immunoprecipitation and cycloheximide (CHX) chase experiments in HEK293T cells. […] We then performed a CHX chase assay to compare the degradation of DAPK1 variants in the presence or absence of full-length KLHL20.
Figure 6 Mutations in the DAPK1 “LPDLV” Motif Impair DAPK1 Binding and Degradation by KLHL20 (A) Full-length DAPK1 variants and KLHL20 Kelch domain were co-transfected into HEK293T cells as indicated. FLAG-KLHL20 Kelch domain was immunoprecipitated (IP) with anti-FLAG antibody. DAPK1 WT was robustly co-purified with KLHL20, whereas DAPK1 mutant was only recovered at the background level of the beads alone. (B) DAPK1 variants were transfected into HEK293T cells with or without full-length KLHL20 as indicated. At 24 h post transfection, cells were incubated with 100 μg/mL cycloheximide (CHX) and harvested at different time points as indicated. DAPK1 protein levels were detected by western blot and normalized to GAPDH. (C) Quantitation of (B).
For structural and biophysical studies, the Kelch domains of human KLHL20 (Uniprot Q9Y2M5 isoform 1, M303-E605) and KLHL3 (Uniprot Q9UH77 isoform 1, residues S298–L587) were cloned using ligation-independent cloning into the bacterial expression vector pNIC28-Bsa4 (GenBank accession number EF198106), which provides for an N-terminal hexahistidine tag and TEV cleavage site. For cellular assays, full length DAPK1 was cloned into pcDNA3.1(+) providing an N-terminal HA tag. The mutant DAPK1 (1336-‘LPDLV’ motif mutated to ‘LPAAV’) was created in the same vector by site directed mutagenesis. […]
HEK293T cells were cultured as described above until 60% confluency. […] Results were analyzed using Western blotting with corresponding antibodies. GAPDH level in each sample was also detected for control (anti-GAPDH antibody; Thermo Fisher, MA5-15738). Western blot band intensities were quantified using Image Studio Lite Ver 5.2 and normalized for the GADPH control.

FLAG-KLHL20 Kelch domain = experiment: Co-immunoprecipitation of KLHL20 and DAPK1 in HEK293T cells; format: cell-based, human; details: FLAG-KLHL20 Kelch domain and HA-DAPK1 full-length co-transfected, 40 hours after transfection, anti-FLAG IP, Western blot
Excerpt: as §1
Figure 6 Mutations in the DAPK1 “LPDLV” Motif Impair DAPK1 Binding and Degradation by KLHL20 (A) Full-length DAPK1 variants and KLHL20 Kelch domain were co-transfected into HEK293T cells as indicated. FLAG-KLHL20 Kelch domain was immunoprecipitated (IP) with anti-FLAG antibody. DAPK1 WT was robustly co-purified with KLHL20, whereas DAPK1 mutant was only recovered at the background level of the beads alone. (B) DAPK1 variants were transfected into HEK293T cells with or without full-length KLHL20 as indicated. […] DAPK1 protein levels were detected by western blot and normalized to GAPDH. (C) Quantitation of (B). […]
HEK293T cells were cultured in high glucose Dulbecco’s Modified Eagle’s Medium (Sigma-Aldrich) with 5% Penicillin Streptomycin (ThermoFisher) and 10% Fetal Bovine Serum (Sigma-Aldrich) inside a 5% CO2 incubator at 37°C. […] Results were analyzed using Western blotting (Anti-Flag antibody, Sigma-Aldrich, F1804; Anti-HA antibody, Biolegend, 901501; Anti-Myc antibody, Cell signalling, 2040S).

B1: DAPK1 WT: full-length HA-DAPK1 wild-type (protein)
chain: MTVFRQENVDDYYDTGEELGSGQFAVVKKCREKSTGLQYAAKFIKKRRTKSSRRGVSREDIEREVSILKEIQHPNVITLHEVYENKTDVILILELVAGGELFDFLAEKESLTEEEATEFLKQILNGVYYLHSLQIAHFDLKPENIMLLDRNVPKPRIKIIDFGLAHKIDFGNEFKNIFGTPEFVAPEIVNYEPLGLEADMWSIGVITYILLSGASPFLGDTKQETLANVSAVNYEFEDEYFSNTSALAKDFIRRLLVKDPKKRMTIQDSLQHPWIKPKDTQQALSRKASAVNMEKFKKFAARKKWKQSVRLISLCQRLSRSFLSRSNMSVARSDDTLDEEDSFVMKAIIHAINDDNVPGLQHLLGSLSNYDVNQPNKHGTPPLLIAAGCGNIQILQLLIKRGSRIDVQDKGGSNAVYWAARHGHVDTLKFLSENKCPLDVKDKSGEMALHVAARYGHADVAQLLCSFGSNPNIQDKEEETPLHCAAWHGYYSVAKALCEAGCNVNIKNREGETPLLTASARGYHDIVECLAEHGADLNACDKDGHIALHLAVRRCQMEVIKTLLSQGCFVDYQDRHGNTPLHVACKDGNMPIVVALCEANCNLDISNKYGRTPLHLAANNGILDVVRYLCLMGASVEALTTDGKTAEDLARSEQHEHVAGLLARLRKDTHRGLFIQQLRPTQNLQPRIKLKLFGHSGSGKTTLVESLKCGLLRSFFRRRRPRLSSTNSSRFPPSPLASKPTVSVSINNLYPGCENVSVRSRSMMFEPGLTKGMLEVFVAPTHHPHCSADDQSTKAIDIQNAYLNGVGDFSVWEFSGNPVYFCCYDYFAANDPTSIHVVVFSLEEPYEIQLNQVIFWLSFLKSLVPVEEPIAFGGKLKNPLQVVLVATHADIMNVPRPAGGEFGYDKDTSLLKEIRNRFGNDLHISNKLFVLDAGASGSKDMKVLRNHLQEIRSQIVSVCPPMTHLCEKIISTLPSWRKLNGPNQLMSLQQFVYDVQDQLNPLASEEDLRRIAQQLHSTGEINIMQSETVQDVLLLDPRWLCTNVLGKLLSVETPRALHHYRGRYTVEDIQRLVPDSDVEELLQILDAMDICARDLSSGTMVDVPALIKTDNLHRSWADEEDEVMVYGGVRIVPVEHLTPFPCGIFHKVQVNLCRWIHQQSTEGDADIRLWVNGCKLANRGAELLVLLVNHGQGIEVQVRGLETEKIKCCLLLDSVCSTIENVMATTLPGLLTVKHYLSPQQLREHHEPVMIYQPRDFFRAQTLKETSLTNTMGGYKESFSSIMCFGCHDVYSQASLGMDIHASDLNLLTRRKLSRLLDPPDPLGKDWCLLAMNLGLPDLVAKYNTSNGAPKDFLPSPLHALLREWTTYPESTVGTLMSKLRELGRRDAADFLLKASSVFKINLDGNGQEAYASSCNSGTSYNSISSVVSR
modifications: left off: HA, N-terminal, kept
notes: full-length HA-DAPK1 wild-type
Half-life / degradation of DAPK1 on KLHL20 co-expression (full-length KLHL20): striking reduction in the half-life | Recovery of DAPK1 in KLHL20 immunoprecipitation (FLAG-KLHL20 Kelch domain): robustly bound to KLHL20

B2: DAPK1 mutant: full-length DAPK1 mutant in which the critical 1,336-“LPDLV” motif was mutated to “LPAAV” (protein)
chain: MTVFRQENVDDYYDTGEELGSGQFAVVKKCREKSTGLQYAAKFIKKRRTKSSRRGVSREDIEREVSILKEIQHPNVITLHEVYENKTDVILILELVAGGELFDFLAEKESLTEEEATEFLKQILNGVYYLHSLQIAHFDLKPENIMLLDRNVPKPRIKIIDFGLAHKIDFGNEFKNIFGTPEFVAPEIVNYEPLGLEADMWSIGVITYILLSGASPFLGDTKQETLANVSAVNYEFEDEYFSNTSALAKDFIRRLLVKDPKKRMTIQDSLQHPWIKPKDTQQALSRKASAVNMEKFKKFAARKKWKQSVRLISLCQRLSRSFLSRSNMSVARSDDTLDEEDSFVMKAIIHAINDDNVPGLQHLLGSLSNYDVNQPNKHGTPPLLIAAGCGNIQILQLLIKRGSRIDVQDKGGSNAVYWAARHGHVDTLKFLSENKCPLDVKDKSGEMALHVAARYGHADVAQLLCSFGSNPNIQDKEEETPLHCAAWHGYYSVAKALCEAGCNVNIKNREGETPLLTASARGYHDIVECLAEHGADLNACDKDGHIALHLAVRRCQMEVIKTLLSQGCFVDYQDRHGNTPLHVACKDGNMPIVVALCEANCNLDISNKYGRTPLHLAANNGILDVVRYLCLMGASVEALTTDGKTAEDLARSEQHEHVAGLLARLRKDTHRGLFIQQLRPTQNLQPRIKLKLFGHSGSGKTTLVESLKCGLLRSFFRRRRPRLSSTNSSRFPPSPLASKPTVSVSINNLYPGCENVSVRSRSMMFEPGLTKGMLEVFVAPTHHPHCSADDQSTKAIDIQNAYLNGVGDFSVWEFSGNPVYFCCYDYFAANDPTSIHVVVFSLEEPYEIQLNQVIFWLSFLKSLVPVEEPIAFGGKLKNPLQVVLVATHADIMNVPRPAGGEFGYDKDTSLLKEIRNRFGNDLHISNKLFVLDAGASGSKDMKVLRNHLQEIRSQIVSVCPPMTHLCEKIISTLPSWRKLNGPNQLMSLQQFVYDVQDQLNPLASEEDLRRIAQQLHSTGEINIMQSETVQDVLLLDPRWLCTNVLGKLLSVETPRALHHYRGRYTVEDIQRLVPDSDVEELLQILDAMDICARDLSSGTMVDVPALIKTDNLHRSWADEEDEVMVYGGVRIVPVEHLTPFPCGIFHKVQVNLCRWIHQQSTEGDADIRLWVNGCKLANRGAELLVLLVNHGQGIEVQVRGLETEKIKCCLLLDSVCSTIENVMATTLPGLLTVKHYLSPQQLREHHEPVMIYQPRDFFRAQTLKETSLTNTMGGYKESFSSIMCFGCHDVYSQASLGMDIHASDLNLLTRRKLSRLLDPPDPLGKDWCLLAMNLGLPAAVAKYNTSNGAPKDFLPSPLHALLREWTTYPESTVGTLMSKLRELGRRDAADFLLKASSVFKINLDGNGQEAYASSCNSGTSYNSISSVVSR
modifications: left off: HA, N-terminal, kept
Half-life of DAPK1 mutant compared with DAPK1 WT (full-length KLHL20; with or without full-length KLHL20, Western blot normalized to GAPDH): exceeded that of DAPK1 WT under any of the conditions above | Half-life / degradation of DAPK1 on KLHL20 co-expression (full-length KLHL20): strikingly resistant to KLHL20 co-expression | Recovery of DAPK1 in KLHL20 immunoprecipitation (FLAG-KLHL20 Kelch domain): only recovered at a low background level
